Source: PMC6779109, “The Glutamate Receptor-Like Protein GLR3.7 Interacts With 14-3-3ω and Participates in Salt Stress Response in Arabidopsis thaliana” (Frontiers in Plant Science, 2019)
Where no end group is shown, it is not given here.

T1: 6His-14-3-3ω recombinant protein (Arabidopsis thaliana, UniProt Q01525 1-259)
T1 construct: 14-3-3ω (GF14/omega) of Arabidopsis thaliana; also called At14-3-3ω; GF14/omega; source: E. coli, purified (Ni-NTA)
T1 sequence (looked up): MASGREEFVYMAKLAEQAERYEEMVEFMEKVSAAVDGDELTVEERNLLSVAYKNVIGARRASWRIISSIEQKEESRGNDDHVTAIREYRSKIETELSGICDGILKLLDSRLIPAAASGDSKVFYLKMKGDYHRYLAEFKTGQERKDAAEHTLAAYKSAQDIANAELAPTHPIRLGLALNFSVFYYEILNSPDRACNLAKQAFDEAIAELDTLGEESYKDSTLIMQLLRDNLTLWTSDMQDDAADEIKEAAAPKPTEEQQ

B1: Phosphorylated GST-GLR3.7 P0 recombinant fusion peptide (peptide)
chain: RYRRMERTSSMPRA
modifications: also: phosphorylated, site not given here, fused to GST
notes: C-terminal fragment of AtGLR3.7 holding Thr-858, Ser-859 and Ser-860; also called G-P0-phosphorylated fusion peptide; phosphorylated G-GLR3.7 P0; not shown: RFP (from the NRV vector)
B2: GST-GLR3.7 P0 recombinant fusion peptide (nonphosphorylated) (peptide)
chain: RYRRMERTSSMPRA
modifications: also: GST fusion
notes: C-terminal fragment of AtGLR3.7 holding Thr-858, Ser-859 and Ser-860; Cloned between AscI and NotI of the NRV vector (GST, RFP, Strep-tags; Curran et al., 2011) with the amino acids APG after the restriction site; fusion protein about 55 kD; also called G-P0; G-GLR3.7 P0; not shown: RFP (from the NRV vector)

Molecular target: T1, 6His-14-3-3ω recombinant protein
Experiment: quartz crystal microbalance; GST fusion peptide coated on the sensor to saturation, 6His-14-3-3ω injected into PBS; AFFINIX QN μ, Kd by AQUA software
Conditions: both partners purified

| Binder | Kd |
| --- | --- |
| B1 | 2.31 nM |
| B2 | 1770 nM |
